Consider 6 molecules from patent US11653679B2, “High-purity steviol glycosides” (PureCircle Sdn Bhd, priority 2014, dated 2023).

Assay [1] in a line: Transformation of Stevioside to Rebaudioside A with UGT76G1 lysate (Examples 4, 13), HPLC. The class given is biochemical. The settings on record: per mL of lysate; 1 U transforms 1 μmol in 1 hour at 30° C. and pH 7.2. Here is the method: The total volume of the reaction was 5.0 mL with the following composition: 50 mM sodium phosphate buffer pH 7.2, 3 mM MgCl2, 2.5 mM UDP-glucose, 0.5 mM Stevioside and 500 μl, of UGT76G1 thawed lysate. The reactions were run at 30° C. on an orbitary shaker at 135 rpm. For each sample, 460 μL of the reaction mixture was quenched with 40 μL of 2N H2SO4 and 420 μL of methanol/water (6/4). The samples were immediately centrifuged and kept at 10° C. before analysis by HPLC (CAD).
(§1) Activity tests were performed on a 5 mL scale with 500 μL of thawed lysate for the transformation of Stevioside to Rebaudioside A and Rebaudioside D to Rebaudioside M using 0.5 mM of substrate, 2.5 mM of UDP-Glucose and 3 mM MgCl2 in 50 mM Sodium Phosphate buffer at pH 7.2. Samples were taken and analyzed by HPLC.

Assay [2] can be described thus: Transformation of Rebaudioside D to Rebaudioside M with UGT76G1 (Examples 6, 13), HPLC. The settings on record: per mL of lysate; 1 U transforms 1 μmol in 1 hour at 30° C. and pH 7.2. The class given is biochemical. How it is done:
The total volume of the reaction was 2 mL with the following composition: 50 mM sodium phosphate buffer pH 7.2, 3 mM MgCl2, 3.8 mM UDP-glucose, 0.5 mM Rebaudioside D and 180 μL of in-vitro produced UGT76G1. The reactions were run at 30° C. on an orbitary shaker at 135 rpm. For each sample, 400 μL of reaction mixture was quenched with 40 μL of 2N H2SO4 and 360 μL of 60% MeOH. After centrifugation, the supernatant was analyzed by HPLC (CAD).
as §1

B1: Example 12: UGT76G1 lysate prepared by pCOLDIII plasmid and Origami2 (DE3) expression strain (protein, UniProt Q6VAB4 1-458, looked up)
UDP-glycosyltransferase 76G1: MENKTETTVRRRRRIILFPVPFQGHINPILQLANVLYSKGFSITIFHTNFNKPKTSNYPHFTFRFILDNDPQDERISNLPTHGPLAGMRIPIINEHGADELRRELELLMLASEEDEEVSCLITDALWYFAQSVADSLNLRRLVLMTSSLFNFHAHVSLPQFDELGYLDPDDKTRLEEQASGFPMLKVKDIKSAYSNWQILKEILGKMIKQTKASSGVIWNSFKELEESELETVIREIPAPSFLIPLPKHLTASSSSLLDHDRTVFQWLDQQPPSSVLYVSFGSTSEVDEKDFLEIARGLVDSKQSFLWVVRPGFVKGSTWVEPLPDGFLGERGRIVKWVPQQEVLAHGAIGAFWTHSGWNSTLESVCEGVPMIFSDFGLDQPLNARYMSDVLKVGVYLENGWERGEIANAIRRVMVDEEGEYIRQNARVLKQKADVSLMKGGSSYESLESLVSYISSL
modifications: E. coli lysate, pCOLDIII
notes: UGT76G1 lysate prepared by pCOLDIII plasmid and Origami2 (DE3) expression strain
As to B1, the “Transformation activity Stevioside to Rebaudioside A” value (“Transformation activity Stevioside” below) in assay [1] worked out at 37 U mL^−1. The “Transformation activity Rebaudioside D to Rebaudioside M” value (“Transformation activity Rebaudioside D” for short) in assay [2] came to 0.20 U mL^−1.

B2: Example 7: UGT76G1 lysate prepared by pET30a+ plasmid and BL21 (DE3) expression strain (protein, UniProt Q6VAB4 1-458, looked up)
UDP-glycosyltransferase 76G1: MENKTETTVRRRRRIILFPVPFQGHINPILQLANVLYSKGFSITIFHTNFNKPKTSNYPHFTFRFILDNDPQDERISNLPTHGPLAGMRIPIINEHGADELRRELELLMLASEEDEEVSCLITDALWYFAQSVADSLNLRRLVLMTSSLFNFHAHVSLPQFDELGYLDPDDKTRLEEQASGFPMLKVKDIKSAYSNWQILKEILGKMIKQTKASSGVIWNSFKELEESELETVIREIPAPSFLIPLPKHLTASSSSLLDHDRTVFQWLDQQPPSSVLYVSFGSTSEVDEKDFLEIARGLVDSKQSFLWVVRPGFVKGSTWVEPLPDGFLGERGRIVKWVPQQEVLAHGAIGAFWTHSGWNSTLESVCEGVPMIFSDFGLDQPLNARYMSDVLKVGVYLENGWERGEIANAIRRVMVDEEGEYIRQNARVLKQKADVSLMKGGSSYESLESLVSYISSL
modifications: E. coli lysate, pET30a+
notes: UGT76G1 lysate prepared by pET30a+ plasmid and BL21 (DE3) expression strain
For the molecule B2, the “Transformation activity Stevioside” value in assay [1] is listed as 29 U mL^−1. In addition, the “Transformation activity Rebaudioside D” value in assay [2] is given as 0.31 U mL^−1.

B3: Example 11: UGT76G1 lysate prepared by pCOLDIII plasmid and ArcticExpress expression strain (protein, UniProt Q6VAB4 1-458, looked up)
UDP-glycosyltransferase 76G1: MENKTETTVRRRRRIILFPVPFQGHINPILQLANVLYSKGFSITIFHTNFNKPKTSNYPHFTFRFILDNDPQDERISNLPTHGPLAGMRIPIINEHGADELRRELELLMLASEEDEEVSCLITDALWYFAQSVADSLNLRRLVLMTSSLFNFHAHVSLPQFDELGYLDPDDKTRLEEQASGFPMLKVKDIKSAYSNWQILKEILGKMIKQTKASSGVIWNSFKELEESELETVIREIPAPSFLIPLPKHLTASSSSLLDHDRTVFQWLDQQPPSSVLYVSFGSTSEVDEKDFLEIARGLVDSKQSFLWVVRPGFVKGSTWVEPLPDGFLGERGRIVKWVPQQEVLAHGAIGAFWTHSGWNSTLESVCEGVPMIFSDFGLDQPLNARYMSDVLKVGVYLENGWERGEIANAIRRVMVDEEGEYIRQNARVLKQKADVSLMKGGSSYESLESLVSYISSL
modifications: E. coli ArcticExpress lysate, pCOLDIII
notes: UGT76G1 lysate prepared by pCOLDIII plasmid and ArcticExpress expression strain
On to B3, for which, in assay [1], the “Transformation activity Stevioside” value is 15 U mL^−1. Moreover, in assay [2], the “Transformation activity Rebaudioside D” value is on record as 0.11 U mL^−1.

B4: Example 8: UGT76G1 lysate prepared by pET30a+ plasmid and Tuner (DE3) expression strain (protein, UniProt Q6VAB4 1-458, looked up)
UDP-glycosyltransferase 76G1: MENKTETTVRRRRRIILFPVPFQGHINPILQLANVLYSKGFSITIFHTNFNKPKTSNYPHFTFRFILDNDPQDERISNLPTHGPLAGMRIPIINEHGADELRRELELLMLASEEDEEVSCLITDALWYFAQSVADSLNLRRLVLMTSSLFNFHAHVSLPQFDELGYLDPDDKTRLEEQASGFPMLKVKDIKSAYSNWQILKEILGKMIKQTKASSGVIWNSFKELEESELETVIREIPAPSFLIPLPKHLTASSSSLLDHDRTVFQWLDQQPPSSVLYVSFGSTSEVDEKDFLEIARGLVDSKQSFLWVVRPGFVKGSTWVEPLPDGFLGERGRIVKWVPQQEVLAHGAIGAFWTHSGWNSTLESVCEGVPMIFSDFGLDQPLNARYMSDVLKVGVYLENGWERGEIANAIRRVMVDEEGEYIRQNARVLKQKADVSLMKGGSSYESLESLVSYISSL
modifications: E. coli Tuner (DE3) lysate, pET30a+
notes: UGT76G1 lysate prepared by pET30a+ plasmid and Tuner (DE3) expression strain
As for B4, the “Transformation activity Stevioside” value in assay [1] amounted to 33 U mL^−1. For the same molecule, the “Transformation activity Rebaudioside D” value in assay [2] was 0.40 U mL^−1.

B5: Example 10: UGT76G1 lysate prepared by pMAL plasmid and ArcticExpress expression strain (protein, UniProt Q6VAB4 1-458, looked up)
UDP-glycosyltransferase 76G1: MENKTETTVRRRRRIILFPVPFQGHINPILQLANVLYSKGFSITIFHTNFNKPKTSNYPHFTFRFILDNDPQDERISNLPTHGPLAGMRIPIINEHGADELRRELELLMLASEEDEEVSCLITDALWYFAQSVADSLNLRRLVLMTSSLFNFHAHVSLPQFDELGYLDPDDKTRLEEQASGFPMLKVKDIKSAYSNWQILKEILGKMIKQTKASSGVIWNSFKELEESELETVIREIPAPSFLIPLPKHLTASSSSLLDHDRTVFQWLDQQPPSSVLYVSFGSTSEVDEKDFLEIARGLVDSKQSFLWVVRPGFVKGSTWVEPLPDGFLGERGRIVKWVPQQEVLAHGAIGAFWTHSGWNSTLESVCEGVPMIFSDFGLDQPLNARYMSDVLKVGVYLENGWERGEIANAIRRVMVDEEGEYIRQNARVLKQKADVSLMKGGSSYESLESLVSYISSL
modifications: E. coli lysate, pMAL
notes: UGT76G1 lysate prepared by pMAL plasmid and ArcticExpress expression strain
In the case of B5, in assay [1], the “Transformation activity Stevioside” value was 15 U mL^−1. Also, the “Transformation activity Rebaudioside D” value in assay [2] is given as 0.25 U mL^−1.

B6: Example 9: UGT76G1 lysate prepared by pMAL plasmid and BL21 expression strain (protein, UniProt Q6VAB4 1-458, looked up)
UDP-glycosyltransferase 76G1: MENKTETTVRRRRRIILFPVPFQGHINPILQLANVLYSKGFSITIFHTNFNKPKTSNYPHFTFRFILDNDPQDERISNLPTHGPLAGMRIPIINEHGADELRRELELLMLASEEDEEVSCLITDALWYFAQSVADSLNLRRLVLMTSSLFNFHAHVSLPQFDELGYLDPDDKTRLEEQASGFPMLKVKDIKSAYSNWQILKEILGKMIKQTKASSGVIWNSFKELEESELETVIREIPAPSFLIPLPKHLTASSSSLLDHDRTVFQWLDQQPPSSVLYVSFGSTSEVDEKDFLEIARGLVDSKQSFLWVVRPGFVKGSTWVEPLPDGFLGERGRIVKWVPQQEVLAHGAIGAFWTHSGWNSTLESVCEGVPMIFSDFGLDQPLNARYMSDVLKVGVYLENGWERGEIANAIRRVMVDEEGEYIRQNARVLKQKADVSLMKGGSSYESLESLVSYISSL
modifications: E. coli lysate, pMAL vector
notes: UGT76G1 lysate prepared by pMAL plasmid and BL21 expression strain
As to B6, in assay [1], the “Transformation activity Stevioside” value is on record as 20 U mL^−1. In assay [2], the “Transformation activity Rebaudioside D” value is listed as 0.15 U mL^−1.
